Experimental data from US20210147526A1 (PLIANT THERAPEUTICS, published 2021).

Legend:
[1] = biological target: cell surface integrin α7β1 (cells and species not stated); assay: cell-based or functional assay
[2] = biological target: T1, Human Integrin α7β1 (human, UniProt Q13683 34-1038; P05556 21-728, limits assumed); assay: comparison of the KD values of Table 8
T1 construct: also called human α7β1 integrin

[3] = biological target: T2, Mouse Integrin α7β1 (mouse, UniProt Q61738 34-1032; P09055 21-728, limits assumed); assay: comparison of the KD values of Table 8
T2 construct: also called murine α7β1 integrin

[4] = biological target: T1, Human Integrin α7β1; assay: kinetics with RU read-out, integrin captured at 0.25 µg/mL, antibody as analyte, 1:1 binding model
[5] = biological target: T2, Mouse Integrin α7β1; assay: as above
[6] = biological target: T3, human integrin alpha-7 (ITGA7) co-transfected with integrin beta-1 precursor (ITGB1) on HEK-293T cells, wild … (human, UniProt P05556 21-798, limits assumed); assay: high-throughput flow cytometry on HEK-293T cells with ITGA7 + ITGB1 against vector alone, 0.5 µg/ml
T3 construct: whole, on cells; also called target protein; wild-type (WT) target protein
From the text: (§1) Conditions for binding and screening of monoclonal antibodies and Fabs using high-throughput flow cytometry were optimized using wild-type target protein cloned into a proprietary vector and expressed in HEK-293T cells. The target protein is human integrin alpha-7 (ITGA7; UniProt ID Q13683; SEQ ID NO: 24). The binding of the VL3VHK20TFT monoclonal antibody and the VL3VHK20TFT Fab to HEK-293T cells co-transfected (1:1) with integrin beta-1 precursor (ITGB1) and integrin subunit alpha 7 (ITGA7) or with vector alone (negative control) was evaluated by high-throughput flow cytometry. The antibodies 3C12, 6A11, A1-1a M20, and A1-1a M24 were used as positive controls for ITGA7 binding.
(§2) Each point in FIG. 15 and FIG. 16 represents the mean of four replicates. The optimal screening concentration for each antibody or Fab (outlined in a box) was determined based on the raw signal values and signal-to-background calculations.

[7] = biological target: T3, human integrin alpha-7 (ITGA7) …; assay: high-throughput flow cytometry on HEK-293T cells with ITGA7 + ITGB1 against vector alone, 2.0 µg/ml
From the text: as §1, §2

[8] = biological target: T4, ITGA7 mutant R958A on HEK-293T cells (human, UniProt P05556 21-798); assay: high-throughput flow cytometry on HEK-293T cells with the ITGA7 alanine mutant, high stringency, normalized to wild type
T4 construct: whole, on cells; Clone of the alanine-scan library of ITGA7
Protocol: (§3) In order to map the epitope of VL3VHK20TFT, an alanine-scan library of the target protein (ITGA7; SEQ ID NO: 24) was constructed. Shotgun mutagenesis epitope mapping was performed using the general procedure described in Davidson and Doranz, 2014, Immunology 143, 13-20. Briefly, a mutation library of the target protein was created by high-throughput, site-directed mutagenesis. Each residue was individually mutated to alanine, with alanine codons mutated to serine. The mutant library was arrayed in 384-well microplates and transiently transfected into HEK-293T cells. Following transfection, cells were incubated with the indicated antibodies (VL3VHK20TFT Fab or 6A11 monoclonal antibody (mAh)) at concentrations predetermined using an independent immunofluorescence titration curve on wild type protein. The antibodies were detected using an Alexa Fluor 488-conjugated secondary antibody, and mean cellular fluorescence was determined using Intellicyt® iQue flow cytometry platform. […] This counterscreen strategy facilitates the exclusion of mutants that are locally misfolded or that have an expression defect.
(§4) The binding of VL3VHK20TFT Fab and 6A11 mAh to each mutant clone in an alanine scanning library of ITGA7 mutants was determined, in duplicate, by high-throughput flow cytometry. For each point, background fluorescence was subtracted from the raw data, which were then normalized to antibody (Ab) reactivity with wild-type (WT) target protein. For each mutant clone, the mean binding value was plotted as a function of expression (represented by control reactivity). To identify preliminary primary critical clones (red circles), a threshold (dashed lines) of >70% WT binding to control Ab and <20% WT binding to test Abs was applied.

[9] = biological target: T5, ITGA7 mutant M976A on HEK-293T cells (human, UniProt P05556 21-798); assay: as above
T5 construct: whole, on cells; Clone of the alanine-scan library of ITGA7
Protocol: as §3, §4

[10] = biological target: T6, ITGA7 mutant W978A on HEK-293T cells (human, UniProt P05556 21-798); assay: as above
T6 construct: whole, on cells; Clone of the alanine-scan library of ITGA7
Protocol: as §3, §4

[11] = biological target: T7, ITGA7 mutant W979A on HEK-293T cells (human, UniProt P05556 21-798); assay: as above
T7 construct: whole, on cells; Clone of the alanine-scan library of ITGA7
Protocol: as §3, §4

[12] = biological target: human α6β1 integrin (human, UniProt P23229 24-1011; P05556 21-728, limits assumed); assay: dose titration on integrins (FIG. 11B)
[13] = biological target: human α5β1 integrin (human, UniProt P08648 42-995; P05556 21-728, limits assumed); assay: dose titration on integrins (FIG. 11B)
Sequence of human α5β1 integrin (P08648 42-995 limits assumed, chain 1 of 2): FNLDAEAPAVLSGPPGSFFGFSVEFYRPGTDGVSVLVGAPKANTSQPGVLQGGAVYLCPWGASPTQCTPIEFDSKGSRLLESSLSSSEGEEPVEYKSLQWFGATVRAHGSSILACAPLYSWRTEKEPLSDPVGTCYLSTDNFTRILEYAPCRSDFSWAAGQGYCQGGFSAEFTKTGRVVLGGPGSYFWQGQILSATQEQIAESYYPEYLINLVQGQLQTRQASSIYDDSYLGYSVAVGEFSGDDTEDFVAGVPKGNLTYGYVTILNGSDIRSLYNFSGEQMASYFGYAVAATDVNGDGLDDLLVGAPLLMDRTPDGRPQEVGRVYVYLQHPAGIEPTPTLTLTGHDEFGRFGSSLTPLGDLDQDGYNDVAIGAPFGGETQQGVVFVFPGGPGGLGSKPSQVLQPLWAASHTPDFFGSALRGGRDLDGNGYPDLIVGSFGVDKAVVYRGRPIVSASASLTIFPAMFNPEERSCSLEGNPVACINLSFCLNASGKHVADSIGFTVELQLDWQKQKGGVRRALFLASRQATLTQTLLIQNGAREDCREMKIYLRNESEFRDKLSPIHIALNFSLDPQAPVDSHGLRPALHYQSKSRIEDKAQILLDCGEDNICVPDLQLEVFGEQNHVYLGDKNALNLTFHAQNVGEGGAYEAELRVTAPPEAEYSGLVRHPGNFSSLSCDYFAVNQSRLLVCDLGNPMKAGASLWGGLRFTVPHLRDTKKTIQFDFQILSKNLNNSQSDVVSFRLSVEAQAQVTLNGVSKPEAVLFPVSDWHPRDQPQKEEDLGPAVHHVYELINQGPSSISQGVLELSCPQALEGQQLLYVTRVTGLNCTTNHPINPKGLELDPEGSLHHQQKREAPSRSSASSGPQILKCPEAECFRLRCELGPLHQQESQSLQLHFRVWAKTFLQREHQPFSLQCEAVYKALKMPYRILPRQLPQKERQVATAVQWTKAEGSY
Sequence of human α5β1 integrin (P05556 21-728 limits assumed, chain 2 of 2): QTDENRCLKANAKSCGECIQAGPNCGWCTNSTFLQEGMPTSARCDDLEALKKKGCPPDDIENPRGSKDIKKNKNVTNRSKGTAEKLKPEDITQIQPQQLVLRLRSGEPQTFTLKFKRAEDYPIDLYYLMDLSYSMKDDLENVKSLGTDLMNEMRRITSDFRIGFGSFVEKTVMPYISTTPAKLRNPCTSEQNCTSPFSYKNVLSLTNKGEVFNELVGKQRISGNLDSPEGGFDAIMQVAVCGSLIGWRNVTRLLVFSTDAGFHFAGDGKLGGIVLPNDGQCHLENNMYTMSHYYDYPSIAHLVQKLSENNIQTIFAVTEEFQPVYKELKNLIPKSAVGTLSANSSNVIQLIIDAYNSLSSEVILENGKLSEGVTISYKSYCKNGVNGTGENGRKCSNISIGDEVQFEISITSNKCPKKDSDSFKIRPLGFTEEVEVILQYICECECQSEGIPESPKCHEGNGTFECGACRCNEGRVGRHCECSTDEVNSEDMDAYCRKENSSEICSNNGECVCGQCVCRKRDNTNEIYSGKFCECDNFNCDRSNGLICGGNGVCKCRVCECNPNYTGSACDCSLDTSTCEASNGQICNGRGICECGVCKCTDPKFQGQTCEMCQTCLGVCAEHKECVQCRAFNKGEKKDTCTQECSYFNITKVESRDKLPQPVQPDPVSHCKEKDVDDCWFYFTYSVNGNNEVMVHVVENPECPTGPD

T2 sequence (Q61738 other isoform, or with tags, fused parts or gaps limits assumed, chain 1 of 2): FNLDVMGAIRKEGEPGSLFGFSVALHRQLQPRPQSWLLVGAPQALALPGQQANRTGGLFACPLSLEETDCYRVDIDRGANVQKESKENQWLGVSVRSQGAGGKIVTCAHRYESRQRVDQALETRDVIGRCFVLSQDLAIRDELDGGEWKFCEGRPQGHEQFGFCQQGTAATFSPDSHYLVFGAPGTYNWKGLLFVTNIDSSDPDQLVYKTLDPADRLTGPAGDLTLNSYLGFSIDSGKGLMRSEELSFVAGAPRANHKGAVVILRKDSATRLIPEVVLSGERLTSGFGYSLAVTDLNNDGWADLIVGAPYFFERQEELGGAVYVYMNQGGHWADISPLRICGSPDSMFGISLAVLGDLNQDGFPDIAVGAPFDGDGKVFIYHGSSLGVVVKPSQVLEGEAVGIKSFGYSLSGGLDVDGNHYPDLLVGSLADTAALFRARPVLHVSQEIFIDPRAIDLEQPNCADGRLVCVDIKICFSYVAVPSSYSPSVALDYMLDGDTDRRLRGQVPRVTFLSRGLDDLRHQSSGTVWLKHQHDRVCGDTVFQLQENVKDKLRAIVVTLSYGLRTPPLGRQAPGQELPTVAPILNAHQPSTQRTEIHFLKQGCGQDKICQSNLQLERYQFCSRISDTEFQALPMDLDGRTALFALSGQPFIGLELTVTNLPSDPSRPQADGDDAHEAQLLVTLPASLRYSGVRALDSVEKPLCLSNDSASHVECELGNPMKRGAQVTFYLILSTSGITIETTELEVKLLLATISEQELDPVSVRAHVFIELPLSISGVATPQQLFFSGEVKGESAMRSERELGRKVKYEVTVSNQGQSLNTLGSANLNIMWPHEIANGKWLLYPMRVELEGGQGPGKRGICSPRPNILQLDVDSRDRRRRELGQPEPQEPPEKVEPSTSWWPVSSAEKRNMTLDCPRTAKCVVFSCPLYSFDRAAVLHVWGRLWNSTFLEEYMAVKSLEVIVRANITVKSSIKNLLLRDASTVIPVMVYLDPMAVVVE
T2 sequence (P09055 21-728 limits assumed, chain 2 of 2): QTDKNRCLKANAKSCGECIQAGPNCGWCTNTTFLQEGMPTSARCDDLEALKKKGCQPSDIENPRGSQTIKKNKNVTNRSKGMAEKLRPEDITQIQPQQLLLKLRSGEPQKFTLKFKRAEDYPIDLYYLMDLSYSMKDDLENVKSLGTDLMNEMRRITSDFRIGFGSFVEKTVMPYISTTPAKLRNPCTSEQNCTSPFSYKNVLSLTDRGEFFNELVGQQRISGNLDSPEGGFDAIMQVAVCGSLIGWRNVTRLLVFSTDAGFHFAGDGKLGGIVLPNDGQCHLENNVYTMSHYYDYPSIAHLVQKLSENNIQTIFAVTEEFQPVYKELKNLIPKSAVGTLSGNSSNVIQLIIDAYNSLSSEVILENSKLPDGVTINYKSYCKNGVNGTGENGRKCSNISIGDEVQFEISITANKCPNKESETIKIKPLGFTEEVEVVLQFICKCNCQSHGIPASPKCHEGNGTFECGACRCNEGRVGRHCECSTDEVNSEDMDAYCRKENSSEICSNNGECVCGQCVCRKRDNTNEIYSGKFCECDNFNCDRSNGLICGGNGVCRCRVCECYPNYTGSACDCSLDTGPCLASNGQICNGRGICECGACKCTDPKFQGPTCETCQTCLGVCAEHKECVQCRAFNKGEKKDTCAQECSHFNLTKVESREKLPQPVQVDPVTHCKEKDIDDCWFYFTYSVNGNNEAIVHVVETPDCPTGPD
T1 sequence (Q13683 other isoform, or with tags, fused parts or gaps limits assumed, chain 1 of 2): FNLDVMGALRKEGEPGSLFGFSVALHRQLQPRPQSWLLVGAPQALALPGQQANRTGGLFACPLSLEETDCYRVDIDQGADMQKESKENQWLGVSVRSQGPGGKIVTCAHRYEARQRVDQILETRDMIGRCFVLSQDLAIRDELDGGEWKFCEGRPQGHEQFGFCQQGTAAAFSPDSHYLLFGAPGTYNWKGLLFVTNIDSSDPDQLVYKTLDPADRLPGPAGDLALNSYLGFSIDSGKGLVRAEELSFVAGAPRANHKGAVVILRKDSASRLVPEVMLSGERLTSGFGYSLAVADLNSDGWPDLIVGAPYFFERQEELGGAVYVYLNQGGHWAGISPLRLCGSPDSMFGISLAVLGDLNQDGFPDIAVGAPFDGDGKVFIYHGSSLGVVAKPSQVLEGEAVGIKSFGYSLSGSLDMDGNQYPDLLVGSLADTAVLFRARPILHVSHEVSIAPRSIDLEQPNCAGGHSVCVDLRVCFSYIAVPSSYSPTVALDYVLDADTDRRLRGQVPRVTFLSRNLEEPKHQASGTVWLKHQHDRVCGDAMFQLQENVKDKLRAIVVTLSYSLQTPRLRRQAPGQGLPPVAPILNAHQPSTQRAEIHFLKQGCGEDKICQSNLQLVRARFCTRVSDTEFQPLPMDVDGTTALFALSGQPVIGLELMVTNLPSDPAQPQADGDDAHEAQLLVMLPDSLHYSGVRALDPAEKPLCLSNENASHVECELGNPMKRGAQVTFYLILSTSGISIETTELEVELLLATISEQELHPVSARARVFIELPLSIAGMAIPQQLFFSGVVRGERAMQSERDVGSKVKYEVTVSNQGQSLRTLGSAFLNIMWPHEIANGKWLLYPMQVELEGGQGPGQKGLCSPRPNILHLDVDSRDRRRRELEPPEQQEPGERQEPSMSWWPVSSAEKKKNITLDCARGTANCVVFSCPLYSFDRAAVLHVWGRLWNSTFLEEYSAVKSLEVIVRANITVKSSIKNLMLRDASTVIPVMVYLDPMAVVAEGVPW
T1 sequence (P05556 21-728 limits assumed, chain 2 of 2): as the sequence (P05556 21-728 limits assumed, chain 2 of 2) above

Kd [4] [nM]	koff [4] [s⁻¹]	kon [4] [M⁻¹ s⁻¹]	Kd [5] [nM]	koff [5] [s⁻¹]	kon [5] [M⁻¹ s⁻¹]	binding result [12]	binding result [13]	further results	Binder
0.593	0.000153	258000	1.96	0.000469	239000	–	–	cell index (integrin α7β1 mediated cell adhesion) of DMD myoblast cells on laminin 211 [1]: ~5 fold; fold lower KD than the chimera antibody VLVH [2]: ~3.33 fold; fold lower KD than the chimera antibody VLVH [3]: ~11.1 fold; Signal:Background [6]: 18 ratio signal:background	VL3VHK20TFT monoclonal antibody (antibody, human IgG4 S228P, kappa, V domains shown, Humanized M36/M38; also called hIgG4-36; hIgG-36) VH: QVQLVQSGAEVKKPGASVKVSCKASGYTFTKYWINWVRQAPGQGLEWMGIIYPGSSTSNYNEKFKTRVTMTVDTSTSTAYMELSSLRSEDTAVYYCVKNDNWGQGTLVTVSS VL: DIQMTQSPSSLSASVGDRVTITCRASESVDNYGISFMNWFQQKPGKAPKLLIYAASDLGSGVPSRFSGSGSGTDFTLTISSLQPEDFATYYCHQSKEVPYTFGQGTKLEIKR
–	–	–	–	–	–	–	–	Signal:Background [7]: 12 ratio signal:background; Binding Reactivity (% WT) [8]: 27.8 % WT; Binding Reactivity (% WT) [9]: 29.5 % WT; Binding Reactivity (% WT) [10]: -0.3 % WT; Binding Reactivity (% WT) [11]: -0.7 % WT	VL3VHK20TFT Fab (Fab, V domains shown, Fab of VL3VHK20TFT; also called VL3VHK20TFT Fab HS; Test Fab) VH: QVQLVQSGAEVKKPGASVKVSCKASGYTFTKYWINWVRQAPGQGLEWMGIIYPGSSTSNYNEKFKTRVTMTVDTSTSTAYMELSSLRSEDTAVYYCVKNDNWGQGTLVTVSS VL: DIQMTQSPSSLSASVGDRVTITCRASESVDNYGISFMNWFQQKPGKAPKLLIYAASDLGSGVPSRFSGSGSGTDFTLTISSLQPEDFATYYCHQSKEVPYTFGQGTKLEIK
1.96	0.000652	333000	21.8	0.00213	97600	–	–	–	mouse α7β1 antibody VLVH (Chimera with human IgG4 Fc) (antibody, V domains shown, also called hIgG4-23; murine antibody (VLVH)) VH: QVQLQQPGAELVKPGASVKLSCKASGYNFTKYWINWVKQRPGQGLEWIGIIYPGSSTSNYNEKFKTKATLTVEISSTTAYMQLSSLTSDDSAVYYCVRGDDWGQGTTLTVSS VL: not shown
–	–	–	–	–	–	no binding	no binding	–	antibody M36 (antibody, V domains shown, Mouse hybridoma monoclonal antibody; also called M36 agonist antibody) VH: QVQLQQPGAELVKPGASVKLSCKASGYNFTKYWINWVKQRPGQGLEWIGIIYPGSSTSNYNEKFKTKATLTVEISSTTAYMQLSSLTSDDSAVYYCVRGDDWGQGTTLTVSS VL: not shown
–	–	–	–	–	–	no binding	no binding	–	antibody M38 (antibody, V domains shown, Mouse hybridoma monoclonal antibody) VH: QVQLQQPGAELVKPGASVKLSCKASGYNFTKYWINWVKQRPGQGLEWIGIIYPGSSTSNYNEKFKTKATLTVEISSTTAYMQLSSLTSDDSAVYYCVRGDDWGQGTTLTVSS VL: not shown
